Source: patent US20180155451A1 (published 2018)

T1: FcγRIIb, extracellular domain with C-terminal His tag (human, UniProt P31994 43-217)
T1 construct: extracellular domain; also called 2b; FcgRIIb; not shown: His tag at the C terminus
T1 sequence (looked up): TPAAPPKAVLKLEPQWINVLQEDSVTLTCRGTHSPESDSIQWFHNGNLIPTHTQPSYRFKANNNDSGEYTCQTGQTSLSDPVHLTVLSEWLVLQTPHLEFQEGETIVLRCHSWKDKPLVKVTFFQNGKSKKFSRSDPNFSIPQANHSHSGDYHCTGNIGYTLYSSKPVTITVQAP

T2: FcγRIIa H (FcγRIIa type H, His at position 131), extracellular domain with C-terminal His tag (human, UniProt P12318 34-217)
T2 construct: extracellular domain; also called 2aH; FcgRIIa H; not shown: His tag at the C terminus
T2 sequence (looked up): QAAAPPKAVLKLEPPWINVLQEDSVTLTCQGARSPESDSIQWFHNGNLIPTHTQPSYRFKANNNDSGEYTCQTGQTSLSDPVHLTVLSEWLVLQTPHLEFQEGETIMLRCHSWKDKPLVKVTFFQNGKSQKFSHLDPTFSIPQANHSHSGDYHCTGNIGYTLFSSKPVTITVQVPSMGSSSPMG

B1: GpH7-A5/GpH7-B3 variant H268_01G/GpL16-k0 (antibody, human IgG1, kappa)
heavy 1: not shown
heavy 2: not shown
light: DIVMTQSPLSLPVTPGEPASISCQASESLVHSNRNTYLHWYLQKPGQSPQLLIYKVSNRFSGVPDRFSGSGSGTDFTLKISRVEAEDVGVYYCSQNTHVPPTFGQGTKVEIERTVAAPSVFIFPPSDEQLKSGTASVVCLLNNFYPREAKVQWKVDNALQSGNSQESVTEQDSKDSTYSLSSTLTLSKADYEKHKVYACEVTHQGLSSPVTKSFNRGEC
notes: Heterodimerized IgG1 (He Ab); mutation only in the GpH7-B3 chain; also called He Ab H268G
B2: GpH7-A5/GpH7-B3 variant P271_09D/GpL16-k0 (antibody, human IgG1, kappa)
heavy 1: not shown
heavy 2: not shown
light: DIVMTQSPLSLPVTPGEPASISCQASESLVHSNRNTYLHWYLQKPGQSPQLLIYKVSNRFSGVPDRFSGSGSGTDFTLKISRVEAEDVGVYYCSQNTHVPPTFGQGTKVEIERTVAAPSVFIFPPSDEQLKSGTASVVCLLNNFYPREAKVQWKVDNALQSGNSQESVTEQDSKDSTYSLSSTLTLSKADYEKHKVYACEVTHQGLSSPVTKSFNRGEC
notes: Heterodimerized IgG1 (He Ab); mutation only in the GpH7-B3 chain; also called He Ab P271D
B3: GpH7-A5/GpH7-B3 variant H268_03V/GpL16-k0 (antibody, human IgG1, kappa)
heavy 1: not shown
heavy 2: not shown
light: DIVMTQSPLSLPVTPGEPASISCQASESLVHSNRNTYLHWYLQKPGQSPQLLIYKVSNRFSGVPDRFSGSGSGTDFTLKISRVEAEDVGVYYCSQNTHVPPTFGQGTKVEIERTVAAPSVFIFPPSDEQLKSGTASVVCLLNNFYPREAKVQWKVDNALQSGNSQESVTEQDSKDSTYSLSSTLTLSKADYEKHKVYACEVTHQGLSSPVTKSFNRGEC
notes: Heterodimerized IgG1 (He Ab); mutation only in the GpH7-B3 chain; also called He Ab H268V
B4: GpH7-A5/GpH7-B3 variant Y300_10E/GpL16-k0 (antibody, human IgG1, kappa)
heavy 1: not shown
heavy 2: not shown
light: DIVMTQSPLSLPVTPGEPASISCQASESLVHSNRNTYLHWYLQKPGQSPQLLIYKVSNRFSGVPDRFSGSGSGTDFTLKISRVEAEDVGVYYCSQNTHVPPTFGQGTKVEIERTVAAPSVFIFPPSDEQLKSGTASVVCLLNNFYPREAKVQWKVDNALQSGNSQESVTEQDSKDSTYSLSSTLTLSKADYEKHKVYACEVTHQGLSSPVTKSFNRGEC
notes: Heterodimerized IgG1 (He Ab); mutation only in the GpH7-B3 chain; also called He Ab Y300E
B5: GpH7-A5/GpH7-B3 variant K326_08L/GpL16-k0 (antibody, human IgG1, kappa)
heavy 1: not shown
heavy 2: not shown
light: DIVMTQSPLSLPVTPGEPASISCQASESLVHSNRNTYLHWYLQKPGQSPQLLIYKVSNRFSGVPDRFSGSGSGTDFTLKISRVEAEDVGVYYCSQNTHVPPTFGQGTKVEIERTVAAPSVFIFPPSDEQLKSGTASVVCLLNNFYPREAKVQWKVDNALQSGNSQESVTEQDSKDSTYSLSSTLTLSKADYEKHKVYACEVTHQGLSSPVTKSFNRGEC
notes: Heterodimerized IgG1 (He Ab); mutation only in the GpH7-B3 chain; also called He Ab K326L
B6: GpH7-A5/GpH7-B3 variant P271_10E/GpL16-k0 (antibody, human IgG1, kappa)
heavy 1: not shown
heavy 2: not shown
light: DIVMTQSPLSLPVTPGEPASISCQASESLVHSNRNTYLHWYLQKPGQSPQLLIYKVSNRFSGVPDRFSGSGSGTDFTLKISRVEAEDVGVYYCSQNTHVPPTFGQGTKVEIERTVAAPSVFIFPPSDEQLKSGTASVVCLLNNFYPREAKVQWKVDNALQSGNSQESVTEQDSKDSTYSLSSTLTLSKADYEKHKVYACEVTHQGLSSPVTKSFNRGEC
notes: Heterodimerized IgG1 (He Ab); mutation only in the GpH7-B3 chain; also called He Ab P271E
B7: GpH7-A5/GpH7-B3 variant H268_05P/GpL16-k0 (antibody, human IgG1, kappa)
heavy 1: not shown
heavy 2: not shown
light: DIVMTQSPLSLPVTPGEPASISCQASESLVHSNRNTYLHWYLQKPGQSPQLLIYKVSNRFSGVPDRFSGSGSGTDFTLKISRVEAEDVGVYYCSQNTHVPPTFGQGTKVEIERTVAAPSVFIFPPSDEQLKSGTASVVCLLNNFYPREAKVQWKVDNALQSGNSQESVTEQDSKDSTYSLSSTLTLSKADYEKHKVYACEVTHQGLSSPVTKSFNRGEC
notes: Heterodimerized IgG1 (He Ab); mutation only in the GpH7-B3 chain; also called He Ab H268P
B8: GpH7-A5/GpH7-B3 variant Y296_20W/GpL16-k0 (antibody, human IgG1, kappa)
heavy 1: not shown
heavy 2: not shown
light: DIVMTQSPLSLPVTPGEPASISCQASESLVHSNRNTYLHWYLQKPGQSPQLLIYKVSNRFSGVPDRFSGSGSGTDFTLKISRVEAEDVGVYYCSQNTHVPPTFGQGTKVEIERTVAAPSVFIFPPSDEQLKSGTASVVCLLNNFYPREAKVQWKVDNALQSGNSQESVTEQDSKDSTYSLSSTLTLSKADYEKHKVYACEVTHQGLSSPVTKSFNRGEC
notes: Heterodimerized IgG1 (He Ab); mutation only in the GpH7-B3 chain; also called He Ab Y296W
B9: GpH7-A5/GpH7-B3 variant H268_20W/GpL16-k0 (antibody, human IgG1, kappa)
heavy 1: not shown
heavy 2: not shown
light: DIVMTQSPLSLPVTPGEPASISCQASESLVHSNRNTYLHWYLQKPGQSPQLLIYKVSNRFSGVPDRFSGSGSGTDFTLKISRVEAEDVGVYYCSQNTHVPPTFGQGTKVEIERTVAAPSVFIFPPSDEQLKSGTASVVCLLNNFYPREAKVQWKVDNALQSGNSQESVTEQDSKDSTYSLSSTLTLSKADYEKHKVYACEVTHQGLSSPVTKSFNRGEC
notes: Heterodimerized IgG1 (He Ab); mutation only in the GpH7-B3 chain; also called He Ab H268W
B10: GpH7-A5/GpH7-B3 variant P271_08L/GpL16-k0 (antibody, human IgG1, kappa)
heavy 1: not shown
heavy 2: not shown
light: DIVMTQSPLSLPVTPGEPASISCQASESLVHSNRNTYLHWYLQKPGQSPQLLIYKVSNRFSGVPDRFSGSGSGTDFTLKISRVEAEDVGVYYCSQNTHVPPTFGQGTKVEIERTVAAPSVFIFPPSDEQLKSGTASVVCLLNNFYPREAKVQWKVDNALQSGNSQESVTEQDSKDSTYSLSSTLTLSKADYEKHKVYACEVTHQGLSSPVTKSFNRGEC
notes: Heterodimerized IgG1 (He Ab); mutation only in the GpH7-B3 chain; also called He Ab P271L
B11: GpH7-A5/GpH7-B3 variant K326_03V/GpL16-k0 (antibody, human IgG1, kappa)
heavy 1: not shown
heavy 2: not shown
light: DIVMTQSPLSLPVTPGEPASISCQASESLVHSNRNTYLHWYLQKPGQSPQLLIYKVSNRFSGVPDRFSGSGSGTDFTLKISRVEAEDVGVYYCSQNTHVPPTFGQGTKVEIERTVAAPSVFIFPPSDEQLKSGTASVVCLLNNFYPREAKVQWKVDNALQSGNSQESVTEQDSKDSTYSLSSTLTLSKADYEKHKVYACEVTHQGLSSPVTKSFNRGEC
notes: Heterodimerized IgG1 (He Ab); mutation only in the GpH7-B3 chain; also called He Ab K326V
B12: GpH7-A5/GpH7-B3 variant S267_19Q/GpL16-k0 (antibody, human IgG1, kappa)
heavy 1: not shown
heavy 2: not shown
light: DIVMTQSPLSLPVTPGEPASISCQASESLVHSNRNTYLHWYLQKPGQSPQLLIYKVSNRFSGVPDRFSGSGSGTDFTLKISRVEAEDVGVYYCSQNTHVPPTFGQGTKVEIERTVAAPSVFIFPPSDEQLKSGTASVVCLLNNFYPREAKVQWKVDNALQSGNSQESVTEQDSKDSTYSLSSTLTLSKADYEKHKVYACEVTHQGLSSPVTKSFNRGEC
notes: Heterodimerized IgG1 (He Ab); mutation only in the GpH7-B3 chain; also called He Ab S267Q
B13: GpH7-A5/GpH7-B3 variant S298_06M/GpL16-k0 (antibody, human IgG1, kappa)
heavy 1: not shown
heavy 2: not shown
light: DIVMTQSPLSLPVTPGEPASISCQASESLVHSNRNTYLHWYLQKPGQSPQLLIYKVSNRFSGVPDRFSGSGSGTDFTLKISRVEAEDVGVYYCSQNTHVPPTFGQGTKVEIERTVAAPSVFIFPPSDEQLKSGTASVVCLLNNFYPREAKVQWKVDNALQSGNSQESVTEQDSKDSTYSLSSTLTLSKADYEKHKVYACEVTHQGLSSPVTKSFNRGEC
notes: Heterodimerized IgG1 (He Ab); mutation only in the GpH7-B3 chain; also called He Ab S298M
B14: GpH7-A5/GpH7-B3 variant K326_04F/GpL16-k0 (antibody, human IgG1, kappa)
heavy 1: not shown
heavy 2: not shown
light: DIVMTQSPLSLPVTPGEPASISCQASESLVHSNRNTYLHWYLQKPGQSPQLLIYKVSNRFSGVPDRFSGSGSGTDFTLKISRVEAEDVGVYYCSQNTHVPPTFGQGTKVEIERTVAAPSVFIFPPSDEQLKSGTASVVCLLNNFYPREAKVQWKVDNALQSGNSQESVTEQDSKDSTYSLSSTLTLSKADYEKHKVYACEVTHQGLSSPVTKSFNRGEC
notes: Heterodimerized IgG1 (He Ab); mutation only in the GpH7-B3 chain; also called He Ab K326F
B15: GpH7-A5/GpH7-B3 variant K326_05P/GpL16-k0 (antibody, human IgG1, kappa)
heavy 1: not shown
heavy 2: not shown
light: DIVMTQSPLSLPVTPGEPASISCQASESLVHSNRNTYLHWYLQKPGQSPQLLIYKVSNRFSGVPDRFSGSGSGTDFTLKISRVEAEDVGVYYCSQNTHVPPTFGQGTKVEIERTVAAPSVFIFPPSDEQLKSGTASVVCLLNNFYPREAKVQWKVDNALQSGNSQESVTEQDSKDSTYSLSSTLTLSKADYEKHKVYACEVTHQGLSSPVTKSFNRGEC
notes: Heterodimerized IgG1 (He Ab); mutation only in the GpH7-B3 chain; also called He Ab K326P
B16: GpH7-A5/GpH7-B3 variant S298_08L/GpL16-k0 (antibody, human IgG1, kappa)
heavy 1: not shown
heavy 2: not shown
light: DIVMTQSPLSLPVTPGEPASISCQASESLVHSNRNTYLHWYLQKPGQSPQLLIYKVSNRFSGVPDRFSGSGSGTDFTLKISRVEAEDVGVYYCSQNTHVPPTFGQGTKVEIERTVAAPSVFIFPPSDEQLKSGTASVVCLLNNFYPREAKVQWKVDNALQSGNSQESVTEQDSKDSTYSLSSTLTLSKADYEKHKVYACEVTHQGLSSPVTKSFNRGEC
notes: Heterodimerized IgG1 (He Ab); mutation only in the GpH7-B3 chain; also called He Ab S298L

Assays:
[1] = biological target: T1, FcγRIIb, extracellular domain with …; experiment: SPR (Biacore), antibody captured on antigen-peptide chip, FcγR as analyte; GpH7-A5/GpH7-B3/GpL16-k0 = 100
Description: (§1) The heterodimerized antibodies He Abs in which one of the H chains was introduced with an alteration were assayed for their binding activities to each activating FcγR and inhibitory FcγR according to the method described in Example 4. […] The activating FcγRs in FIGS. 26, 27, 28, and 29 are FcγRIa, FcγRIIa (R), FcγRIIa (H), and FcγRIIIa, respectively.
(§2) Analysis of interaction between objective antibody and the FcγR was carried out using Biacore T100 (GE Healthcare). HBS-EP+ (GE Healthcare) was used as the running buffer, and the measurement temperature was set to 25° C. Chips produced by immobilizing the antigen peptide by the amine coupling method to a Series S Sencor Chip CM5 (GE Healthcare), or alternatively, chips produced by allowing preliminarily biotinylated antigen peptides to interact with and immobilize onto a Series S Sensor Chip SA (certified) (GE Healthcare) were used. Antibodies of interest were captured onto an antigen peptide-immobilized chip, and allowed to interact to each FcγR diluted with running buffer. To regenerate and repeatedly use the chip, the antibodies captured on the chip were washed off by reacting 10 mM glycine-HCl, pH 1.5.

[2] = biological target: T2, FcγRIIa H (FcγRIIa type H, His at …); experiment: as above
Description: as §1, §2

Binder | He/Con_2b (relative binding activity) [1] | He/Con_2aH (relative binding activity) [2]
B1 | 144 % of control | 99.2 % of control
B2 | 120 % of control | 70.1 % of control
B3 | 114 % of control | 99.2 % of control
B4 | 134 % of control | 97.2 % of control
B5 | 177 % of control | 92.7 % of control
B6 | 109 % of control | 63.1 % of control
B7 | 116 % of control | 81.8 % of control
B8 | 103 % of control | 97.6 % of control
B9 | 111 % of control | 95.8 % of control
B10 | 103 % of control | 86.7 % of control
B11 | 175 % of control | 97 % of control
B12 | 218 % of control | 61.3 % of control
B13 | 102 % of control | 98.1 % of control
B14 | 155 % of control | 97 % of control
B15 | 126 % of control | 98.8 % of control
B16 | 108 % of control | 85 % of control
